# Source: the Human Domainome abundance scans (Beltran et al. 2025)
# ± gives the uncertainty stated by the source.
# B1: Tyrosine-protein kinase Lck, residues 63 to 120; numbered along this chain, P06239 (parent)
# chain: DNLVIALHSYEPSHDGDLGFEKGEQLRILEQSGEWWKAQSLTTGQEGFIPFNFVAKAN
# B2: Gamma-crystallin C, residues 4 to 79; numbered along this chain, P07315 (parent)
# chain: ITFYEDRAFQGRSYETTTDCPNLQPYFSRCNSIRVESGCWMLYERPNYQGQQYLLRRGEYPDYQQWMGLSDSIRSC
# Variants of: B1
# Assay: abundance fitness (aPCA) (normalised: wild type 0, dead -1); higher = more abundant; growth selection in yeast, the domain comes from the species named
# Settings: Homo sapiens
row,Variant,abundance fitness
1,V4G,-0.431 ± 0.37
2,E24A,-0.357 ± 0.093
3,G44C,-0.446 ± 0.1
4,E34I,-0.142 ± 0.17
5,G47I,-1.02 ± 0.3
6,G16F,-0.309 ± 0.14
7,G16P,-1.03 ± 0.23
8,G16E,-0.247 ± 0.1
9,E30K,-0.248 ± 0.15
10,E30T,-0.293 ± 0.12
11,E30W,-0.503 ± 0.13
12,A6P,-0.897 ± 0.16
13,G19L,-0.604 ± 0.1
14,G19V,-0.47 ± 0.085
15,G23M,-0.792 ± 0.16
16,G23Y,-0.655 ± 0.29
17,F51V,-0.033 ± 0.082
18,F51K,0.103 ± 0.11
19,F20W,-1.04 ± 0.19
20,F20L,-0.411 ± 0.11
21,Q39M,-0.179 ± 0.11
22,Q39P,-0.843 ± 0.23
23,L3A,-0.79 ± 0.14
24,D15T,-0.124 ± 0.15

row,Variant,abundance fitness
1,E46R,-0.207 ± 0.068
2,N2R,-0.32 ± 0.088
3,L26N,-0.787 ± 0.22
4,S13N,-0.061 ± 0.2
5,S13M,-0.026 ± 0.13
6,F48A,-0.235 ± 0.081
7,W35I,-0.049 ± 0.13
8,L41A,-0.382 ± 0.094
9,K56H,0.015 ± 0.12
10,V54R,-0.813 ± 0.081
11,V54F,-0.6 ± 0.16
12,L29F,-0.527 ± 0.17
13,E11C,-0.21 ± 0.12
14,E11P,-0.409 ± 0.13
15,E11M,-0.409 ± 0.14
16,H14D,-0.219 ± 0.14
17,H14Y,-0.165 ± 0.1
18,Q25S,-0.053 ± 0.088
19,K22I,-0.526 ± 0.21
20,P12S,-0.366 ± 0.085
21,Q45S,-0.282 ± 0.098
22,Q45C,-0.117 ± 0.11
23,Q45D,-0.217 ± 0.15

# Variants of: B2
# Assay: as above
# Settings: Homo sapiens
row,Variant,abundance fitness
1,ITFYWDRAFQGRSYETTTDCPNLQPYFSRCNSIRVESGCWMLYERPNYQGQQYLLRRGEYPDYQQWMGLSDSIRSC [E5W],-0.209 ± 0.11
2,ITFYVDRAFQGRSYETTTDCPNLQPYFSRCNSIRVESGCWMLYERPNYQGQQYLLRRGEYPDYQQWMGLSDSIRSC [E5V],-0.107 ± 0.078
3,ITFYTDRAFQGRSYETTTDCPNLQPYFSRCNSIRVESGCWMLYERPNYQGQQYLLRRGEYPDYQQWMGLSDSIRSC [E5T],-0.156 ± 0.078
4,ITFYPDRAFQGRSYETTTDCPNLQPYFSRCNSIRVESGCWMLYERPNYQGQQYLLRRGEYPDYQQWMGLSDSIRSC [E5P],-0.127 ± 0.13
5,ITFYRDRAFQGRSYETTTDCPNLQPYFSRCNSIRVESGCWMLYERPNYQGQQYLLRRGEYPDYQQWMGLSDSIRSC [E5R],0.014 ± 0.067
6,ITFYMDRAFQGRSYETTTDCPNLQPYFSRCNSIRVESGCWMLYERPNYQGQQYLLRRGEYPDYQQWMGLSDSIRSC [E5M],0.097 ± 0.12
7,ITFYGDRAFQGRSYETTTDCPNLQPYFSRCNSIRVESGCWMLYERPNYQGQQYLLRRGEYPDYQQWMGLSDSIRSC [E5G],-0.124 ± 0.055
